According to the nanobody polyreactivity screen of Harvey et al. (2022):

Experiment: yeast display, Sf9 membrane polyspecificity reagent, FACS + sequencing; frameworks hold sequencing errors
Procedure, shortened: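 Synthetic nanobody libraries on Saccharomyces cerevisiae BJ5465 were galactose-induced for 36–48 hours, stained 1 hour at 4 °C with 10% biotinylated, detergent-solubilized Sf9 membrane reagent and enriched on streptavidin microbeads. FACS then separated cells into low and high (top ~1%) gates by anti-HA (expression) and streptavidin (reagent binding) fluorescence. Genes were colony-PCR amplified, MiSeq 2 × 250 sequenced and CDR-length filtered. A clone's polyreactivity label is that of its gate of origin.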

Sequence | polyreactivity (PSR sort gate)
QVQIVESGGVLVQAGGSLRLSCAASGFNYTNYAMGWYIQSPGKERELVAAITYSGGSKYYADSVKGRFTISRDIAKNTVYLQMNSLKPEDTAVFFCNKYPSFYGAGYYWGQGTQVTVSS | high polyreactivity
QVQLVESGGGLVQAGGSLRLSCAASGSIFDYNGMGWYRQAPGKERELVAAISSGGSTNYADSVKGRFTISRDNAKNTVYLQMNSLKPEDTAVYYCAAVGRAKYYYWGQGTQVTVSS | low polyreactivity
QVQLVESGGGLVQAGGSLRLSCAASGFTFVGNAMGWYRQAPGQERELVAAITRGGSTYYADSVKGRFTISRDNAKNTVYLQMNSLKPEDTAVYYCNAELPVHWSWYDYWGQGTQVNVSS | low polyreactivity
QVQLVESGGGLVQAGGSLRLSCAASGFILRQNVMGWYRQAPGKERELVAAISRSGGRTYYADSVKGRFTISRDNAMNTVYFQMNSLKPEDTAVDYCNAGRYNYTDDYWGQGTQVTVSS | high polyreactivity
QVQLVESGGGLVQAGGSLRLSSAASGSIFASYAMGWYRQAPGKERELVAAISRRAVRTYYADSVKGRFTISRDNAKNTVYLQMNSLKPEDSAVYYCNAASSLPGYDYWGQGTQLTVSS | high polyreactivity
QVQLVESGGGLVQAGGSLSLSCAASGSIFQKYTMGWYRQAPRKERELVAAITRSGGSTYYADSVKGRFTISRDNAKNTVYLQMNSLKAEDSAVYYCNKRYIPWAYDYWGQGTQVTVSS | high polyreactivity
QVQLVESGGGLVQAGGSLRLSCAASGITFTDYDMGWYRQAPGKERELVAAISNGGGSTYYADSVKGRFTISRDNAKNTVYLQMYSMKPEDTAVYYCAAERVPSWWVEWGVAQWDDYWGQGTQVTVSS | low polyreactivity
QVQLVESGGGLVQAGGSLRLSCAASGGTFRYNAMGWYRQAPGKERELVAAISRSGGSTHYADSVKGRFTISRDNAKNTVYLQMNSLKPEDTAVYYCAATVTFVPSRAGFYKYNYWGQGTQVTVSS | high polyreactivity
QVQLVESGGGLVQAGGSLRLSCAASGFIFYRKTMGWYRQAPGKERELDAAISVSGGSTNYADSVKGRFTISRDNAKNTVYLQMNSLKPEDTAVYYCAARVRDSLVYGGWDDYWGQGTQVTVSS | high polyreactivity
QVQLVESGGGLVQAGGSLRLSCAASGRIFRQYAMGWYRQAPGKERELVAAITSGGSTNYADSVKGRFTISRDNAKNTVYLQMNSLKPEDTAVYYCNARWPYAYQDGYWGQGTQVTVSS | low polyreactivity
QVQLVDSGGGLVQAGGSLRLSCAASGLIVFYAMGWYRQAPGKERELVAGISSGGNTNYADSVKGRFTISRDNAKNTFYLQMNSMKPQDTSVYYCAAVYLLSSYDFWGQGTQVTVSS | high polyreactivity
QDQHVESGGGLVQAGGSLRLSCAASGLIFYYNMGWNRQAPRKERELVAAISSSGGSTSYADSVKGRFTISRDNAKNTVYLQMNSLKPEDTAVYYCAADSYPAYLGFVGFDYWGQGTQVTVSS | low polyreactivity
QVQLVESGGGLDQAGGSLPLSCAASGRILQGYAMGWYRQAPGKEREMVASIRTGGTTNYADSVKGRFTISRDNAKNTVYLQMNSLKPEDTAVYYCNRGYDSYYGRYYYWGQGTQVTVSS | high polyreactivity
QVQRVESGGGIVQAGGSLRLSCAASRRIFPYYALGWYRQSPGKERELVAAISQSDGSTYYADSVKGRFTISRDNAKNTVYLQMNSLKPEDTAVYYWAKRQASYTKHRKGRGDYWGQGTQVTVSS | low polyreactivity
QGQLVESGGGLGQAGGSLRLSSAASGRTFGRYAMGWYRQAPGNERELVAAISYSTDSTYYADSVKGRFTISRDNAKNTVYLQMNSLKPEDTAVYYCATDSVNVGSYVGDKHDYWGQGSQVTVSS | low polyreactivity
QVQLVESGGVLVQAGGSLRLSCAASGYIFEGNAMGWYRQAPGKERDFVAAITKRGGSTYYADSVKGRFTISRDNAKNTVYLQMNSLKPEDTAVYYCAADRSYPRAGRYDYWGQVTQVTVSS | low polyreactivity
QVQLVESGGGLLQAGGSLRLSCAASGTIFKYYAMGWYRQAPGKERELVAAISRSGSNTYYADSVKGRFRISRDNAKNTVYLQMNTLKPEDTAVYYFAARARRYIYTFDSWGQGTQVTVSS | high polyreactivity
